Values joined by “and” are separate entries in the source; they are usually repeats but may differ in a detail not shown here. Equal values may be shown once.
How the values were obtained:
CD4+ T cells = assay: Ligand dose response, % CD40L positive cells, CD4+ T cells; type: cell-based
Method: Ligand dose response curve experiments were performed with increasing doses of ligand using OT-001662 and OT-001666 constructs in both CD4+ as well as CD8+ T cells.
The experiments were conducted using three different volumes of virus for transduction i.e. 0.5, 2 and 10 μL.

T cells = assay: % CD40L positive cells in vivo, transduced T cells in NSG mice dosed with TMP; set-up: species or system NSG female mice
Method: Based on the in vitro data, regulatability of CD40L constructs in vivo was tested. 10-week old NSG female mice were injected with T cells transduced with one of the following constructs empty vector, OT-001661, and OT-001662 (day 0). On day 1, mice were pre-bled prior to dose with ligand. On day 2, mice were dosed every 4 hours with TMP at 500 mg/kg body weight of the mouse or vehicle control. Two hours after every dose, blood was collected from the mice to measure CD40L levels. On day 3, i.e. 24 hours after the first dose, mice were terminally bled for analysis. The values in bold represent the average values for each bleed.

[1] = tested on: T cells (CD4 and CD8 positive); assay: CD40L MFI in vitro in CD4 and CD8 positive T cells, 10 μM TMP; type: cell-based
Method: T cells were transduced with OT-001662 and then treated with 10 μM TMP on day 4. CD40L expression was analyzed by FACS both in the CD4 and CD8 positive T cell populations.

T cells (CD4+ and CD8+) = assay: Regulation of CD40L in T cells by different drug responsive domains; type: cell-based
[2] = tested on: T cells co-cultured with monocyte derived dendritic cells (mDC); assay: CD40L levels in T cells in mDC co-culture (FACS); type: cell-based; settings: for % CD40L+ / CD40L MFI: mDC co-culture 2 days; for SR (based on %) / SR (based on MFI): stabilization ratio
Source text: In order to engage dendritic cells in an immune response, dendritic cells must be converted to a functional state by an antigen-specific CD4+ helper T cell. Activation of the dendritic cells may be followed by the activation of CD8+ T cells by the dendritic cells, a process referred to as dendritic cell licensing. Engagement of the CD40L expressed on the CD4+ cells with the CD40 on the dendritic cells can result in (i) dendritic cell stimulation-measured by expression of co-stimulatory and MHC molecules (ii) proinflammatory cytokine release (e.g. IL12, TNFα and INFγ) (iii) epitope spreading. To measure the effect of CD40L expression that is tuned by the biocircuits of the present disclosure, CD4+ T cells or Jurkat cells expressing any of the CD40L constructs described herein were co-cultured with dendritic cells.
Dendritic cell function in response to co-culture with T cells expressing CD40L was evaluated in the presence of ligand or corresponding vehicle control. Monocyte derived dendritic cells (mDC) (CD14+) were isolated from fresh blood and cultured for 5 days with IL-4 (7.5 ng/mL) and GM-CSF (20 ng/mL). The mDCs were frozen down after the 5 day culture. T cells were transduced with OT-001662 and expanded for 9 days before being frozen down. mDCs and T cells were thawed and co-cultured 1:10 DC: T cell ratio (i.e. 5×10^4 DCs: 5×10^5 T cells). mDC and T cells were co-cultured for 2 days before cells were collected for flow cytometry and supernatants were collected for cytokine analysis. For evaluation of regulated constructs, ligand (various doses of TMP) was added at the time initiating the co-culture and was kept in the co-culture for 2 days. Cytokines were analyzed by MSD after a single freeze thaw cycle. All cells were cultured in complete RPMI with 10% FBS during the course of the experiment. SR indicates stabilization ratio.

B1: OT-001666 (Met; ER (305-549 of WT, L384M, N413D, M421G, G521R, Y537S); Histidine; CD40L; stop) (ligand)
chain: MSLALSLTADQMVSALLDAEPPILYSEYDPTRPFSEASMMGLLTNLADRELVHMINWAKRVPGFVDLTLHDQVHLLECAWMEILMIGLVWRSMEHPGKLLFAPNLLLDRDQGKCVEGGVEIFDMLLATSSRFRMMNLQGEEFVCLKSIILLNSGVYTFLSSTLKSLEEKDHIHRVLDKITDTLIHLMAKAGLTLQQQHQRLAQLLLILSHIRHMSNKRMEHLYSMKCKNVVPLSDLLLEMLDAHRLHMIETYNQTSPRSAATGLPISMKIFMYLLTVFLITQMIGSALFAVYLHRRLDKIEDERNLHEDFVFMKTIQRCNTGERSLSLLNCEEIKSQFEGFVKDIMLNKEETKKENSFEMQKGDQNPQIAAHVISEASSKTTSVLQWAEKGYYTMSNNLVTLENGKQLTVKRQGLYYIYAQVTFCSNREASSQAPFIASLCLKSPGRFERILLRAANTHSSAKPCGQQSIHLGGVFELQPGASVFVNVTDPSQVSHGTGFTSFGLLKL
CD4+ T cells; 2 μL virus, BZD 0.05 nM
  % CD40L positive cells: 8.57%
CD4+ T cells; 2 μL virus, BZD 0.5 nM
  % CD40L positive cells: 9.25%
CD4+ T cells; 2 μL virus, BZD 5 nM
  % CD40L positive cells: 11.1%
CD4+ T cells; 2 μL virus, BZD 50 nM
  % CD40L positive cells: 36%
CD4+ T cells; 2 μL virus, BZD 500 nM
  % CD40L positive cells: 71.8%
CD4+ T cells; 10 μL virus, BZD 0.05 nM
  % CD40L positive cells: 4.16%
CD4+ T cells; 10 μL virus, BZD 0.5 nM
  % CD40L positive cells: 4.86%
CD4+ T cells; 10 μL virus, BZD 5 nM
  % CD40L positive cells: 6.42%
CD4+ T cells; 10 μL virus, BZD 50 nM
  % CD40L positive cells: 34%
CD4+ T cells; 10 μL virus, BZD 500 nM
  % CD40L positive cells: 76.5%

B2: OT-001662: CD40L construct with ecDHFR (M1del, R12Y, Y100I) DRD, ligand TMP (protein)
chain: MSGISLIAALAVDYVIGMENAMPWNLPADLAWFKRNTLNKPVIMGRHTWESIGRPLPGRKNIILSSQPGTDDRVTWVKSVDEAIAACGDVPEIMVIGGGRVIEQFLPKAQKLYLTHIDAEVEGDTHFPDYEPDDWESVFSEFHDADAQNSHSYCFEILERRHMIETYNQTSPRSAATGLPISMKIFMYLLTVFLITQMIGSALFAVYLHRRLDKIEDERNLHEDFVFMKTIQRCNTGERSLSLLNCEEIKSQFEGFVKDIMLNKEETKKENSFEMQKGDQNPQIAAHVISEASSKTTSVLQWAEKGYYTMSNNLVTLENGKQLTVKRQGLYYIYAQVTFCSNREASSQAPFIASLCLKSPGRFERILLRAANTHSSAKPCGQQSIHLGGVFELQPGASVFVNVTDPSQVSHGTGFTSFGLLKL
T cells; 0 hours, average, TMP 500 mg/kg every 4 hours
  % CD40L positive cells in vivo: 1.0%
T cells; 0 hours, average, Vehicle
  % CD40L positive cells in vivo: 0.9%
T cells; 0 hours, individual values, TMP 500 mg/kg every 4 hours
  % CD40L positive cells in vivo: 0.9% (2×) and 0.4% and 1.8%
T cells; 0 hours, individual values, Vehicle
  % CD40L positive cells in vivo: 0.8% and 0.9% and 0.1% and 1.8%
T cells; 2 hours, average, TMP 500 mg/kg every 4 hours
  % CD40L positive cells in vivo: 8.6%
T cells; 2 hours, average, Vehicle
  % CD40L positive cells in vivo: 0.9%
T cells; 2 hours, individual values, TMP 500 mg/kg every 4 hours
  % CD40L positive cells in vivo: 11.8% and 13.0% and 9.6% and 0.0%
T cells; 2 hours, individual values, Vehicle
  % CD40L positive cells in vivo: 0.6% and 1.0% and 0.0% and 1.9%
T cells; 6 hours, average, TMP 500 mg/kg every 4 hours
  % CD40L positive cells in vivo: 19.9%
T cells; 6 hours, average, Vehicle
  % CD40L positive cells in vivo: 0.3%
T cells; 6 hours, individual values, TMP 500 mg/kg every 4 hours
  % CD40L positive cells in vivo: 22.1% and 25.7% and 13.8% and 18.0%
T cells; 6 hours, individual values, Vehicle
  % CD40L positive cells in vivo: 0.3% and 0.4% and 0.5% and 0.2%
T cells; 10 hours, average, TMP 500 mg/kg every 4 hours
  % CD40L positive cells in vivo: 20.1%
T cells; 10 hours, average, Vehicle
  % CD40L positive cells in vivo: 0.1%
T cells; 10 hours, individual values, TMP 500 mg/kg every 4 hours
  % CD40L positive cells in vivo: 26.0% and 21.4% and 0.0% and 33.1%
T cells; 10 hours, individual values, Vehicle
  % CD40L positive cells in vivo: 0.0% (3×) and 0.3%
T cells; 24 hours, average, TMP 500 mg/kg every 4 hours
  % CD40L positive cells in vivo: 12.0%
T cells; 24 hours, average, Vehicle
  % CD40L positive cells in vivo: 0.6%
T cells; 24 hours, individual values, TMP 500 mg/kg every 4 hours
  % CD40L positive cells in vivo: 1.2% and 0.8% and 18.9% and 27.2%
T cells; 24 hours, individual values, Vehicle
  % CD40L positive cells in vivo: 0.0% and 0.3% and 1.4% and 0.7%
CD4+ T cells; 0.5 μL virus, TMP 0.05 nM
  % CD40L positive cells: 31.6%
CD4+ T cells; 0.5 μL virus, TMP 0.5 nM
  % CD40L positive cells: 32%
CD4+ T cells; 0.5 μL virus, TMP 5 nM
  % CD40L positive cells: 33.9%
CD4+ T cells; 0.5 μL virus, TMP 50 nM
  % CD40L positive cells: 35.7%
CD4+ T cells; 0.5 μL virus, TMP 500 nM
  % CD40L positive cells: 48.2%
CD4+ T cells; 0.5 μL virus, TMP 5000 nM
  % CD40L positive cells: 67%
CD4+ T cells; 0.5 μL virus, TMP 50000 nM
  % CD40L positive cells: 68.9%
CD4+ T cells; 2 μL virus, TMP 0.05 nM
  % CD40L positive cells: 25.1%
CD4+ T cells; 2 μL virus, TMP 0.5 nM
  % CD40L positive cells: 24.4%
CD4+ T cells; 2 μL virus, TMP 5 nM
  % CD40L positive cells: 27.6%
CD4+ T cells; 2 μL virus, TMP 50 nM
  % CD40L positive cells: 37.4%
CD4+ T cells; 2 μL virus, TMP 500 nM
  % CD40L positive cells: 68.4%
CD4+ T cells; 2 μL virus, TMP 5000 nM
  % CD40L positive cells: 76.8%
CD4+ T cells; 2 μL virus, TMP 50000 nM
  % CD40L positive cells: 76.8%
CD4+ T cells; 10 μL virus, TMP 0.05 nM
  % CD40L positive cells: 23.8%
CD4+ T cells; 10 μL virus, TMP 0.5 nM
  % CD40L positive cells: 24.2%
CD4+ T cells; 10 μL virus, TMP 5 nM
  % CD40L positive cells: 24.6%
CD4+ T cells; 10 μL virus, TMP 50 nM
  % CD40L positive cells: 30.7%
CD4+ T cells; 10 μL virus, TMP 500 nM
  % CD40L positive cells: 58.5%
CD4+ T cells; 10 μL virus, TMP 5000 nM
  % CD40L positive cells: 79.1%
CD4+ T cells; 10 μL virus, TMP 50000 nM
  % CD40L positive cells: 78.8%
[1]; CD4+, TMP (10 μM)
  CD40L MFI in vitro: 10159
[1]; CD4+, Vehicle
  CD40L MFI in vitro: 348
[1]; CD8+, TMP (10 μM)
  CD40L MFI in vitro: 4893
[1]; CD8+, Vehicle
  CD40L MFI in vitro: 182
T cells (CD4+ and CD8+); All Cells, 10 uM TMP
  CD40L positive: 89.7%
  MFI: 2122
T cells (CD4+ and CD8+); All Cells, DMSO
  CD40L positive: 7.6%
  MFI: 140
T cells (CD4+ and CD8+); CD4+, 10 uM TMP
  CD40L positive: 94.4%
  MFI: 2608
T cells (CD4+ and CD8+); CD4+, DMSO
  CD40L positive: 8.8%
  MFI: 152
T cells (CD4+ and CD8+); CD8+, 10 uM TMP
  CD40L positive: 74.9%
  MFI: 1070
T cells (CD4+ and CD8+); CD8+, DMSO
  CD40L positive: 91.8%
  MFI: 2.1
[2]; CD4+, DMSO
  % CD40L+: 3.71%
  CD40L MFI: 63.8
[2]; CD4+, TMP (0.1 μM)
  % CD40L+: 4.32%
  CD40L MFI: 69.8
  SR (based on %): 1.16
  SR (based on MFI): 1.09
[2]; CD4+, TMP (0.5 μM)
  % CD40L+: 3.34%
  CD40L MFI: 61.1
  SR (based on %): 0.90
  SR (based on MFI): 0.96
[2]; CD4+, TMP (2 μM)
  % CD40L+: 78%
  CD40L MFI: 691
  SR (based on %): 21.02
  SR (based on MFI): 10.83
[2]; CD4+, TMP (10 μM)
  % CD40L+: 84.1%
  CD40L MFI: 1379
  SR (based on %): 22.67
  SR (based on MFI): 21.61
[2]; CD8+, DMSO
  % CD40L+: 0.47%
  CD40L MFI: 57.8
[2]; CD8+, TMP (0.1 μM)
  % CD40L+: 0.69%
  CD40L MFI: 61.5
  SR (based on %): 1.47
  SR (based on MFI): 1.06
[2]; CD8+, TMP (0.5 μM)
  % CD40L+: 0.57%
  CD40L MFI: 54.5
  SR (based on %): 1.21
  SR (based on MFI): 0.94
[2]; CD8+, TMP (2 μM)
  % CD40L+: 57.8%
  CD40L MFI: 419
  SR (based on %): 122.98
  SR (based on MFI): 7.25
[2]; CD8+, TMP (10 μM)
  % CD40L+: 74.9%
  CD40L MFI: 951
  SR (based on %): 159.36
  SR (based on MFI): 16.45
[2]; mDC-T cell co-culture 2 days, various doses of TMP, CD4 and CD8+ cells
  Ligand dependent regulation of CD40L: Ligand dependent regulation of CD40L was evident
